The values below come from patent US20230340114A1 (IMMUNE ONC THERAPEUTICS, published 2023).

The chains are these.
B1: H7K3 variant 5, K3m1 (N/V) (antibody, V domains shown)
VH: EVQLVESGGGLVQPGGSLRLSCAASGFSLSSSYWISWVRQAPGKGLEWIGSIDSGSVGITYYATWVKGRFTISRDNSKNTLYLQMNSLRAEDTAVYYCARHGDNWALDLWGQGTLVTVSS
VL: DIQMTQSPSTLSASVGDRVTITCRASQSIVSWLAWYQQKPGKAPKLLIYKASTLASGVPSRFSGSGSGTEFTLTISSLQPDDFATYYCQHGYIRGDLDNVFGGGTKVEIK
B2: H7K3 variant 11, K3m7 (S/Q) (antibody, V domains shown)
VH: B1 VH
VL: B1 VL with V30N, S31Q
B3: H7K3 variant 8, K3m4 (N/Q) (antibody, V domains shown)
VH: B1 VH
VL: B1 VL with V30Q
B4: H7K3 variant 12, K3m8 (S/V) (antibody, V domains shown)
VH: B1 VH
VL: B1 VL with V30N, S31V

Numbering of substitutions follows the chain as printed.

The first assay addresses T1, flag-tagged cynomolgus monkey LILRB4 expressed on CHO-K1 cells (cynomolgus monkey).
T1 construct: whole, on cells; also called cyno LILRB4
Briefly: FACS, CHO-stable cells expressing cyno LILRB4.
Broadly, the EC50 is the concentration at which the effect is half-maximal. B1 had an EC50 of 1.23 nM.
Still for that read-out and setting: the figure for B2 is 0.974 nM; for B3 it is 0.989 nM.
As to B4, the EC50 was found to be 0.933 nM.

Another assay concerns the target T2, human LILRB4 expressed on cells (human, UniProt Q8NHJ6 22-448).
T2 construct: whole, on cells; also called ILT3; CD85k
As to the kind of experiment: FACS, CHO-stable cells expressing human LILRB4.
As to B1, a half-maximal response (EC50) required 0.463 nM.
Same read-out and setting: the figure for B2 is 0.455 nM; for B3 it is 0.48 nM; for B4 it is 0.402 nM.
